Here are results for 1 molecule from patent publication US20020198143A1 (Human Genome Sciences, published 2002).

In this assay the target is T1, human B7-H3 protein expressed on transfected 293 cells (human, UniProt Q5ZPR3 29-534).
T1 construct: also called B7-H3/293 cells
T1 sequence: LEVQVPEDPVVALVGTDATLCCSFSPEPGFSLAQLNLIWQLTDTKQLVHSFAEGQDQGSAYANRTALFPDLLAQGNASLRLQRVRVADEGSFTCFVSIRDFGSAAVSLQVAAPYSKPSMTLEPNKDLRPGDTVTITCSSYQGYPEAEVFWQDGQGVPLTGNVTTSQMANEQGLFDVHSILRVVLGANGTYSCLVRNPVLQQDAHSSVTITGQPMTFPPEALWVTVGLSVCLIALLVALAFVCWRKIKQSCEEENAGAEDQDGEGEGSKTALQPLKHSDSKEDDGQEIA
As to the kind of experiment: FACS on 293 cells transfected with B7-H3. The source says:
It has been reported that both CTLA-4 nd ICOS can be induced to express on the surface of activated T cells, while CD28 expresses constitutively.

B1: ICOSIg (Fc fusion, UniProt Q9Y6W8 21-140, looked up)
chain: EINGSANYEMFIFHNGGVQILCKYPDIVQQFKMQLLKGGQILCDLTKTKGSGNTVSIKSLKFCHSQLSNNSVSFFLYNLDHSHANYYFCNLSIFDPPPFKVTLTGGYLHIYESQLCCQLK
notes: extracellular domain; not shown: Fc constant region of mouse IgG2a, inferred from 'similar methods'
On to B1, for which the binding result is recorded as “no binding”.
